How the values were obtained:
Assay in all cases: anti-FLAG purification of YoeB-3×FLAG from cell surface extract, SDS-PAGE band integration of the co-purified protein
CwlF protein = target: T1, CwlF protein (Bacillus subtilis, UniProt P54421 26-334)
T1 construct: Endogenous protein of the WE1YoeB3FL strain, co-purified with YoeB-3×FLAG
Protocol: (§1) After the pre-culture, the pre-cultured strain was inoculated in 50 ml of LB liquid medium to bring the OD₆₀₀ value to 0.01, and main culture was conducted until the OD₆₀₀ value reached 2.0. After the completion of the culture, the culture solution was centrifuged at 10,000 rpm for 10 minutes. The supernatant was removed and the precipitate was washed with 25 mM Tris-HCl (pH 7.2). The washed precipitate was suspended in 3M LiCl (25 mM Tris-HCl, pH 7.2) to a density of 10 μl/OD, and the suspension was allowed to stand on ice for 20 minutes. Thereafter, centrifugation was carried out at 4° C. and 10,000 rpm for 10 minutes. The supernatant was recovered, TCA (trichloroacetic acid) was added to a final concentration of 5%, the mixture was thoroughly mixed, and the resulting suspension was allowed to stand on ice for 60 minutes. Thereafter, centrifugation was carried out at 4° C. and 15,000 rpm for 5 minutes. The supernatant was removed, and the precipitate was rinsed with 70% ethanol to thoroughly remove TCA. Thus, outer surface proteins were extracted from the WE1YoeB3FL strain and the WE1E3FL strain, respectively.
(§2) The mixture was mildly (8 rpm) agitated at 4° C. for 1 hour. Thereafter, centrifugation was carried out at 5,000 rpm for 1 minute. The supernatant was removed while carefully refraining from suctioning the precipitated gel. Thereafter, 500 μl of TBS buffer was added to prepare a suspension. Thereafter, the gel was transferred to the Spin Column (Micro Bio Spin Chromatography Columns (BIO RAD)), and the gel was trapped via centrifugation at 1,000 g for 30 seconds. Thereafter, the resultant was washed three times with 500 μl of TBS buffer. Subsequently, 100 μl of Glycine HCl elution buffer (0.1M glycine-HCl) was sequentially added thereto and thoroughly agitated. Elution was carried out 1 minute later at 1,000 g for 30 seconds, and this procedure was repeated two times. The products were combined to prepare an eluted solution.
(§3) Subsequently, the band pattern of the resulting eluted solution was inspected via SDS-PAGE. Electrophoresis was carried out by charging proteins in amounts corresponding to the amount extracted from the cells (OD₆₀₀=200) to the relevant lanes.

YojL protein = YojL protein (Bacillus subtilis, UniProt O31852 27-414)
Protocol: as §1, §2, §3

CwlE protein = target: T2, CwlE protein (Bacillus subtilis, UniProt O07532 27-488)
T2 construct: Endogenous protein of the WE1YoeB3FL strain, co-purified with YoeB-3×FLAG
T2 sequence (O07532 27-488 limits assumed): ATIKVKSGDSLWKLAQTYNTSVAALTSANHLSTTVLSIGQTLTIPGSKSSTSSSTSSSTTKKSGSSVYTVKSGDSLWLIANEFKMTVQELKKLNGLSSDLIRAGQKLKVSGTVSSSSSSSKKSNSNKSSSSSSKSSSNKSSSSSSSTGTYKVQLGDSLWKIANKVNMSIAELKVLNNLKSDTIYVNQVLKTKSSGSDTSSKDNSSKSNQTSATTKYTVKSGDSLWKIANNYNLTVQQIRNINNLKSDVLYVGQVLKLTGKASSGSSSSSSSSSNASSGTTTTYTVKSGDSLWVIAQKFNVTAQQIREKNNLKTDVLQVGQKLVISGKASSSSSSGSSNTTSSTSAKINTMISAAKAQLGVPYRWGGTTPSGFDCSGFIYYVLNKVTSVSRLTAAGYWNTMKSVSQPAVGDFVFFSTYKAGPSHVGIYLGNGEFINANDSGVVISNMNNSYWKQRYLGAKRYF
Protocol: as §1, §2, §3

T1 sequence (P54421 26-334 limits assumed): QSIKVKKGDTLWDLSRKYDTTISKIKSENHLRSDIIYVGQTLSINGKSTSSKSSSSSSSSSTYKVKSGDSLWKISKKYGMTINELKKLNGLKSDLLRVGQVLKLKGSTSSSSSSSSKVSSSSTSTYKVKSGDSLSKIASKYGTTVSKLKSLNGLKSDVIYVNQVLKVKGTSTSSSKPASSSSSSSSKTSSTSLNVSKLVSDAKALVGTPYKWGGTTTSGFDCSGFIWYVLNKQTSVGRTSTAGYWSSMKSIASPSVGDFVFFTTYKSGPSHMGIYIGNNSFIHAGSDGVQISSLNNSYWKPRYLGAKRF

B1: YoeB-3×FLAG protein (other)
chain: KNTSGDLSQKQALQLALSAREHFWNTMSGHNPKVKKAVCPSGTFEYQNLQYVYMCSDLGTKAKAVNYLTPIFTKTAIEKGFKDYHFTVSKGKLAVPIGDGDNLLNWKKSTAKLISKKGSTITYEFTVPTLDGSPSAKRKVTFVKENKKWKVNQFDAVI
notes: Expressed in B. subtilis WE1 from pCA3FLYoeB with IPTG, extracted from the cell surface with LiCl and purified on anti-FLAG M2 gel; also called YoeB protein (bait from the WE1YoeB3FL strain); not shown: 3×FLAG tag
For B1, the Integrated value (CwlF protein) was 1250, the “Integrated value/Molecular weight” value (CwlF protein) was 0.03 and the “Proportion relative to YoeB (1)” value (CwlF protein) was 0.05. For the same binder, the Integrated value (YojL protein) was 989, the “Integrated value/Molecular weight” value (YojL protein) was 0.02 and the “Proportion relative to YoeB (1)” value (YojL protein) was 0.03. For the same binder, the Integrated value (CwlE protein) was 30100, the “Integrated value/Molecular weight” value (CwlE protein) was 0.59 and the “Proportion relative to YoeB (1)” value (CwlE protein) was 0.89.

Source: US20100297703A1 (published 2010)
